# B1: Nb190, wild type, purified from E. coli (VHH)
# VHH: QVQLQESGGGLVQAGGSLRLSCAASGSIFSINTMGWYRQAPGKQRELVAFATSGGSTNYPDSVKGRFTISRDNVKNTVYLQMNSLKPEDTAVYYCNIDGFLGSLYKDYWSQGTQVTVSS
# Molecular target: T1, HIV-1 Rev protein (mobility shift assay, bound to stem-loop IIB RRE RNA) (HIV-1, strain  for this …, UniProt P04618)
# T1 construct: also called IIB associated Rev
# Assay: native gel or EMSA
# Conditions: both partners purified
# T1 sequence (P04618 whole entry): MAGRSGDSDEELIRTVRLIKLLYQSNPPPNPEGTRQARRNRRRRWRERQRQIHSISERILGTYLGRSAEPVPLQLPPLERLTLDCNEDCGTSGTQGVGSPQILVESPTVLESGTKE
binder,measurement,value
B1,binding result,binds

# Reference: publication PMC3615019, “Mapping the Binding Interface between an HIV-1 Inhibiting Intrabody and the Viral Protein Rev” (PLoS ONE, 2013)
